# Results: patent US20240116985A1, “STAPLED PEPTIDES AND METHODS THEREOF” (priority 2020, published 2024)
# Starred links: 1 amine or outer side, 2 acyl side, 3 side chain; linkers in the order of their positions; H or OH if unused. Positions of bridges follow the written chain, without caps; N, C: chain ends. Non-standard residues stand in square brackets, D forms with d. Primed or numbered codes have the meaning given here. No end group written: not given here. PyrS2″ = (S)-3-amino-1-((pent-4-en-1-yloxy)carbonyl)pyrrolidine-3-carboxylic acid (stapling residue), C=CCCCOC(=O)N1CC[C@@](N[*:1])(C(=O)[*:2])C1; B5(4) = 2,2-bis(4-pentenyl)glycine = 2-amino-2-(pent-4-en-1-yl)hept-6-enoic acid (stitching residue), C=CCCCC(CCCC=C)(N[*:1])C(=O)[*:2]; B5(8) = 2,2-bis(4-pentenyl)glycine (2-amino-2-(pent-4-en-1-yl)hept-6-enoic acid, stitching residue), C=CCCCC(CCCC=C)(N[*:1])C(=O)[*:2]; TfeGA = (S)-2-amino-3-((carboxymethyl)(2,2,2-trifluoroethyl)amino)propanoic acid, O=C([C@H](CN(CC(=O)[*:3])CC(F)(F)F)N[*:1])[*:2]; PyrS2 = (S)-3-amino-1-((pent-4-en-1-yloxy)carbonyl)pyrrolidine-3-carboxylic acid, C=CCCCOC(=O)N1CC[C@@](N[*:1])(C(=O)[*:2])C1; PyrS3 = (S)-3-amino-1-((hex-5-en-1-yloxy)carbonyl)pyrrolidine-3-carboxylic acid, C=CCCCCOC(=O)N1CC[C@@](N[*:1])(C(=O)[*:2])C1; Az2 = 3-amino-1-((pent-4-en-1-yloxy)carbonyl)azetidine-3-carboxylic acid, C=CCCCOC(=O)N1CC(N[*:1])(C(=O)[*:2])C1; Az3 = 3-amino-1-((hex-5-en-1-yloxy)carbonyl)azetidine-3-carboxylic acid, C=CCCCCOC(=O)N1CC(N[*:1])(C(=O)[*:2])C1; B5(7) = 2-amino-2-(pent-4-en-1-yl)hept-6-enoic acid, two olefinic side chains, C=CCCCC(CCCC=C)(N[*:1])C(=O)[*:2]; B5(13) = 2-amino-2-(pent-4-en-1-yl)hept-6-enoic acid (two alkene chains), C=CCCCC(CCCC=C)(N[*:1])C(=O)[*:2]; B5(3) = 2,2-bis(4-pentenyl)glycine (stitching residue), C=CCCCC(CCCC=C)(N[*:1])C(=O)[*:2]; B5 = 2-amino-2-(pent-4-en-1-yl)hept-6-enoic acid, C=CCCCC(CCCC=C)(N[*:1])C(=O)[*:2]; Phe(3-COOH) = N[C@@H](Cc1cccc(C(=O)O)c1)C(=O)O; Phe(4-COOH) = N[C@@H](Cc1ccc(C(=O)O)cc1)C(=O)O; Phe(2-Cl) = N[C@@H](Cc1ccccc1Cl)C(=O)O; 2Nal = N[C@@H](Cc1ccc2ccccc2c1)C(=O)O; Bta = N[C@@H](Cc1csc2ccccc12)C(=O)O; αAllylPro = C=CC[C@@]1(C(=O)O)CCCN1; tBuAla = CC(C)(C)C[C@H](N)C(=O)O; 3Thi = N[C@@H](Cc1ccsc1)C(=O)O; S8 = C=CCCCCCC[C@](C)(N)C(=O)O; Aib = CC(C)(N)C(=O)O
# Key:
# [1] = target: full-length beta-Catenin (Uniprot ID P35222) (Homo sapiens (Human)) (UniProt P35222); test: fluorescence polarization competition; full-length beta-catenin + 5FAM-TCF4(10-53) probe; peptide titrated
# Target sequence in this assay (P35222 2-781 limits assumed): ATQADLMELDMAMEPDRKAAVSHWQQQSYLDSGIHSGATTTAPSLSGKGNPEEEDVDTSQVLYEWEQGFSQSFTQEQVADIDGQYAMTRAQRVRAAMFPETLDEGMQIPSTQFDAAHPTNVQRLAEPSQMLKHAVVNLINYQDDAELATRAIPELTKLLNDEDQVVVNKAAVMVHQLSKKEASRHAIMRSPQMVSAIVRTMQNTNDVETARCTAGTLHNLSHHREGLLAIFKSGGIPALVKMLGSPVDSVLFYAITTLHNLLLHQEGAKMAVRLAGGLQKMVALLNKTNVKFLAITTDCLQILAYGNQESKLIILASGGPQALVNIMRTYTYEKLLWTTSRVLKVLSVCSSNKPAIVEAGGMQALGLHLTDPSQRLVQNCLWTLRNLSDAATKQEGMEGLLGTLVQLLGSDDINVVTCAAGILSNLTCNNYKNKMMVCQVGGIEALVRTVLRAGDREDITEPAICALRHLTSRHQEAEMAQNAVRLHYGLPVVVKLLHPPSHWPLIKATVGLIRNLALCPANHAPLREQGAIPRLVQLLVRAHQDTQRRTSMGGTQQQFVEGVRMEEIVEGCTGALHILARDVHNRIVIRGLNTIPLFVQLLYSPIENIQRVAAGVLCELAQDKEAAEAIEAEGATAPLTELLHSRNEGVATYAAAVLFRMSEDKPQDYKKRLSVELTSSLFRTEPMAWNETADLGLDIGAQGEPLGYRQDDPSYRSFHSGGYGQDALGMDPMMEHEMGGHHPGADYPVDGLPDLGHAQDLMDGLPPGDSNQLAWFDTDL
# [2] = target: full-length beta-Catenin (Uniprot ID P35222) (Homo sapiens (Human)) (UniProt P35222); test: fluorescence polarization competition; full-length beta-catenin; competitor displaced: 5FAM-TCF4 10-53
# Target sequence in this assay (P35222 2-781 limits assumed): as above
# Bcat-Halo [3] = target: Bcat-Halo (UniProt P35222); test: NanoBRET in HEK293 cells, Bcat-Halo / TCF4-Luc; peptide at 10 uM; competitor TCF4-Luc
# Bcat-Halo, sequence (P35222 whole entry): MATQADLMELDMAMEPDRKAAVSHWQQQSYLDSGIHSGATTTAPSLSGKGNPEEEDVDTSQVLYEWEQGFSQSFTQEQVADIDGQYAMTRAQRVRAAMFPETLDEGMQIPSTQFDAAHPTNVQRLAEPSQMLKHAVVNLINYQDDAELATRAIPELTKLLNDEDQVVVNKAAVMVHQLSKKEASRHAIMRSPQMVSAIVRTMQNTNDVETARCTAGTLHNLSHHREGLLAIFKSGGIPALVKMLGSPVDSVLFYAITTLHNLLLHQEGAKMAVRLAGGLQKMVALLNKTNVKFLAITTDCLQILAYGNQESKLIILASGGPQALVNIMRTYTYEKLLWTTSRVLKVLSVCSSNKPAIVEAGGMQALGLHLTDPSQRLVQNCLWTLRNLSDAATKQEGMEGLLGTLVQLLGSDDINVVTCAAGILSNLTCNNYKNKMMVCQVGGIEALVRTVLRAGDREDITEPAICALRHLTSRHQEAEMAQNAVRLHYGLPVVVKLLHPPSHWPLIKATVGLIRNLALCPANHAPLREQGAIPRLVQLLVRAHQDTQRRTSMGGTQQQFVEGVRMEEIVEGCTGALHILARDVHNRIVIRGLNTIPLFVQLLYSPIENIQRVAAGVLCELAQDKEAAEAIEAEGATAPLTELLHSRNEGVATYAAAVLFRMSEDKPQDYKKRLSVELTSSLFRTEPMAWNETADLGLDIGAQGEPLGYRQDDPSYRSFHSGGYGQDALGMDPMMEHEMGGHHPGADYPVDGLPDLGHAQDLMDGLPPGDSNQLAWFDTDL
# [4] = target: beta-catenin (full-length, Uniprot ID P35222) (Homo sapiens (Human)) (UniProt P35222); test: fluorescence polarization competition, displacement of 5FAM-TCF4 10-53 from full-length beta-catenin
# Target sequence in this assay (P35222 2-781 limits assumed): as the sequence (P35222 2-781 limits assumed) above
# [5] = target: full-length beta-Catenin (Uniprot ID P35222) (Homo sapiens (Human)) (UniProt P35222); test: fluorescence polarization competition; 10 nM full-length beta-catenin with 10 nM 5FAM-TCF4(10-53) probe
# Target sequence in this assay (P35222 2-781 limits assumed): as above
# [6] = target: full-length beta-Catenin (Uniprot ID P35222) (Homo sapiens (Human)) (UniProt P35222); test: fluorescence polarization competition vs 5FAM-TCF4(10-53) on full-length beta-catenin
# Target sequence in this assay (P35222 whole entry, the tested form may be a part, one chain of several): as the sequence (P35222 whole entry) above
# [7] = target: full-length beta-Catenin (Uniprot ID P35222) (Homo sapiens (Human)) (UniProt P35222); test: fluorescence polarization competition; peptide titrated against full-length beta-catenin + 5FAM-TCF4(10-53) probe
# Target sequence in this assay (P35222 2-781 limits assumed): as the sequence (P35222 2-781 limits assumed) above
# [8] = target: full-length beta-Catenin (Uniprot ID P35222) (Homo sapiens (Human)) (UniProt P35222); test: fluorescence polarization competition; peptide displaces 5FAM-TCF4(10-53) from full-length beta-catenin
# Target sequence in this assay (P35222 2-781 limits assumed): as above
# Bcat-Halo [9] = target: Bcat-Halo (UniProt P35222); test: NanoBRET in HEK293 cells, Bcat-Halo/TCF4-Luc (competitor TCF4-Luc); percent inhibition at 10 uM peptide
# [10] = target: full-length beta-Catenin (Uniprot ID P35222) (Homo sapiens (Human)) (UniProt P35222); test: fluorescence polarization competition; full-length beta-catenin, competitor 5FAM-TCF4(10-53) probe
# Target sequence in this assay (P35222 2-781 limits assumed): as above
# [11] = target: full-length beta-Catenin (Uniprot ID P35222) (Homo sapiens (Human)) (UniProt P35222); test: fluorescence polarization competition; 10 nM full-length beta-catenin with 10 nM 5FAM-labeled TCF4 residues 10-53 probe, peptide titrated
# Target sequence in this assay (P35222 whole entry, the tested form may be a part, one chain of several): as the sequence (P35222 whole entry) above
# [12] = target: full-length beta-Catenin (Uniprot ID P35222) (Homo sapiens (Human)) (UniProt P35222); test: fluorescence polarization competition; 5FAM-TCF4 10-53 probe on full-length beta-catenin
# Target sequence in this assay (P35222 whole entry, the tested form may be a part, one chain of several): as the sequence (P35222 whole entry) above
# [13] = target: full-length beta-Catenin (Uniprot ID P35222) (Homo sapiens (Human)) (UniProt P35222); test: fluorescence polarization competition, peptide titrated against full-length beta-catenin + 5FAM-TCF4(10-53)
# [14] = target: full-length beta-Catenin (Uniprot ID P35222) (Homo sapiens (Human)) (UniProt P35222); test: AlphaScreen competition vs biotin-TCF4(10-53) on full-length beta-catenin
# Target sequence in this assay (P35222 whole entry, the tested form may be a part, one chain of several): as the sequence (P35222 whole entry) above
# [15] = target: beta-catenin (full-length, Uniprot ID P35222) (Homo sapiens (Human)) (UniProt P35222); test: fluorescence polarization competition; full-length beta-catenin; competitor 5FAM-TCF4(10-53) probe
# Target sequence in this assay (P35222 whole entry, one chain of several): as the sequence (P35222 whole entry) above
# [16] = target: full-length beta-Catenin (Uniprot ID P35222) (Homo sapiens (Human)) (UniProt P35222); test: FP competition vs 5FAM-TCF4(10-53) probe on full-length beta-catenin
# Target sequence in this assay (P35222 whole entry, the tested form may be a part, one chain of several): as the sequence (P35222 whole entry) above
# Bcat-Halo [17] = target: Bcat-Halo (UniProt P35222); test: NanoBRET in HEK293 cells, Bcat-Halo/TCF4-Luc (competitor TCF4-Luc); IC50
# [18] = target: full-length beta-Catenin (Uniprot ID P35222) (Homo sapiens (Human)) (UniProt P35222); test: fluorescence polarization competition; full-length beta-catenin, 5FAM-TCF4(10-53) probe
# [19] = target: full-length beta-Catenin (Uniprot ID P35222) (Homo sapiens (Human)) (UniProt P35222); test: fluorescence polarization competition, full-length beta-catenin with 5FAM-TCF4(10-53) probe
# Bcat-Halo [20] = target: Bcat-Halo (UniProt P35222); test: NanoBRET in HEK293 cells, Bcat-Halo/TCF4-Luc (competitor TCF4-Luc); absolute IC50
# [21] = target: full-length beta-Catenin (Uniprot ID P35222) (Homo sapiens (Human)) (UniProt P35222); test: fluorescence polarization competition; full-length beta-catenin with 5FAM-TCF4(10-53) probe as competitor
# Target sequence in this assay (P35222 whole entry, the tested form may be a part, one chain of several): as the sequence (P35222 whole entry) above
# [22] = target: Bcat-Halo (beta-catenin HaloTag construct expressed in HEK293 cells) (UniProt P35222); test: NanoBRET in HEK293 cells, percent inhibition at 10 uM peptide; Bcat-Halo with TCF4-Luc as competitor
# Bcat-Halo (beta-catenin HaloTag construct expressed in HEK293 cells), sequence (P35222 whole entry): as above
# [23] = target: full-length beta-Catenin (Uniprot ID P35222) (Homo sapiens (Human)) (UniProt P35222); test: fluorescence polarization competition; displacement of 5FAM-TCF4(10-53) from full-length beta-catenin
# [24] = target: full-length beta-Catenin (Uniprot ID P35222) (Homo sapiens (Human)) (UniProt P35222); test: fluorescence polarization competition; 10 nM full-length beta-catenin with 10 nM 5FAM-TCF4 (residues 10-53) probe as competitor
binder,measurement,setting,value
"Ac-[αAllylPro]D[tBuAla][B5(8)]DDAAFN[PyrS2″][3Thi][Bta]H-NH2 (staple 1-4, 4-11) [I-694]",EC50,[1],5 nM
same,IC50,[2],5 nM
same,NanoBRET % inh @ 10 uM,Bcat-Halo [3],32.7%
"Ac-[αAllylPro]DA[B5(4)]D[TfeGA]AAFV[S8]F[Bta]Q-NH2 (staple 1-4, 4-11) [I-293: Ac-PL3-Asp-Ala-B5-Asp-TfeGA-Ala-Ala-Phe-Val-S8-Phe-BztA-Gln-NH2]",IC50,[4],140 nM
"Ac-[αAllylPro]D[tBuAla][B5(3)]D[Phe(3-COOH)][Aib]AFL[Az2][3Thi][Bta]Q-NH2 (staple 1-4, 4-11) [I-2617]",IC50,[5],130 nM
"Ac-[αAllylPro]D[tBuAla][B5(3)]D[Phe(3-COOH)][Aib]AFL[Az3][3Thi][Bta]Q-NH2 (staple 1-4, 4-11; not fully specified; printed as Ac-PL3-Asp-Npg-B5-Asp-3COOHF-Aib-Ala-Phe-Leu-Az3-3Thi-BztA-Gln-NH2) [I-2618]",IC50,[5],77 nM
"Ac-[αAllylPro]DA[B5(4)]DDAAFV[S8][Phe(4-COOH)][Bta]Q-NH2 (staple 1-4, 4-11; also: earlier-eluting staple isomer) [I-339]",IC50,[6],5000 nM
same,EC50,[7],5000 nM
"Ac-[αAllylPro]D[tBuAla][B5(13)]DDAAFN[PyrS3][3Thi][Bta]H-NH2 (staple 1-4, 4-11) [I-775]",IC50,[8],6 nM
same,NanoBRET % inh @ 10 uM,Bcat-Halo [9],5.1%
same,EC50,[10],7 nM
"PD[tBuAla][B5]D[Phe(3-COOH)]AAFL[PyrS2][Phe(2-Cl)][Bta]Q-NH2 (staple 4-11; staple (positions not given here); not fully specified (residue 1, N-terminus, bridges); printed as ProAm5-Asp-Npg-B5-Asp-3COOHF-Ala-Ala-Phe-Leu-PyrS2-2C1F-BztA-Gln-NH2) [I-1984]",IC50,[11],320 nM
"Ac-[αAllylPro]D[tBuAla][B5]DDAAFN[PyrS2″][3Thi][Bta][dT]-NH2 (staple 1-4, 4-11) [I-817]",IC50,[12],10 nM
same,EC50,[13],10 nM
"PD[tBuAla][B5]D[Phe(3-COOH)]AAFL[PyrS2][Phe(2-Cl)][Bta]Q-NH2 (staple 4-11; staple (positions not given here); not fully specified (residue 1, N-terminus, bridges); printed as ProAm6-Asp-Npg-B5-Asp-3COOHF-Ala-Ala-Phe-Leu-PyrS2-2C1F-BztA-Gln-NH2) [I-1985]",IC50,[11],325 nM
"Ac-[αAllylPro]DA[B5(4)]DDAAFV[S8][Phe(4-COOH)][Bta]Q-NH2 (staple 1-4, 4-11; also: later-eluting staple isomer) [I-340]",IC50,[6],5000 nM
same,EC50,[7],5000 nM
"Ac-[αAllylPro]DA[B5(4)]D[2Nal]AAFQ[S8]F[Bta]Q-NH2 (staple 1-4, 4-11) [I-295]",EC50,[14],1180 nM
same,IC50,[15],5000 nM
same,EC50,[16],5000 nM
"PD[tBuAla][B5]D[TfeGA]AAFT[PyrS2][Phe(2-Cl)][Bta]Q-NH2 (staple 4-11; staple (positions not given here); not fully specified (residue 1, N-terminus, bridges)) [I-1986]",IC50,[11],502 nM
"Ac-[αAllylPro]D[tBuAla][B5(4)]D[Phe(3-COOH)][Aib]AFL[Az3][3Thi][Bta]Q-NH2 (staple 1-4, 4-11; not fully specified; printed as Ac-PL3-Asp-Npg-B5-Asp-3COOHF-Aib-Ala-Phe-Leu-Az3-3Thi-BztA-Gln-NH2) [I-2619]",IC50,[5],36 nM
"Ac-[αAllylPro]D[tBuAla][B5(13)]DDAAFN[PyrS2]F[Bta]H-NH2 (staple 1-4, 4-11) [I-777]",IC50,Bcat-Halo [17],14400 nM
same,IC50,[8],5 nM
same,NanoBRET % inh @ 10 uM,Bcat-Halo [9],24.5%
same,EC50,[10],5 nM
"Ac-[αAllylPro]D[tBuAla][B5(3)]D[TfeGA]AAFF[S8][Phe(2-Cl)][Bta]Q-NH2 (staple 1-4, 4-11) [I-931]",IC50,[18],221 nM
same,EC50,[19],221 nM
"Ac-[αAllylPro]DL[B5(8)]DDAAFN[PyrS2″][3Thi][Bta]H-NH2 (staple 1-4, 4-11) [I-696]",EC50,[1],5 nM
same,IC50,[2],5 nM
same,NanoBRET % inh @ 10 uM,Bcat-Halo [3],17%
"Ac-[αAllylPro]D[tBuAla][B5(7)]D[TfeGA]AAFN[PyrS2][3Thi][Bta]H-NH2 (staple 1-4, 4-11; also: earlier-eluting staple isomer) [I-769]",IC50,Bcat-Halo [20],13000 nM
same,IC50,[21],5 nM
same,EC50,[10],5 nM
"Ac-[αAllylPro]DA[B5(4)]D[TfeGA]AAFV[S8]F[Bta]Q-NH2 (staple 1-4, 4-11) [I-293]",EC50,[14],41 nM
same,EC50,[16],140 nM
"Ac-[αAllylPro]D[tBuAla][B5(4)]DLAAFN[PyrS2][3Thi][Bta]Q-NH2 (staple 1-4, 4-11) [I-846]",NanoBRET % inh @ 10 uM,[22],4.3%
same,IC50,[23],56 nM
same,EC50,[24],35 nM
"Ac-[αAllylPro]D[tBuAla][B5(7)]D[TfeGA]AAFN[PyrS2][3Thi][Bta]H-NH2 (staple 1-4, 4-11; also: later-eluting staple isomer) [I-770]",IC50,Bcat-Halo [20],13700 nM
same,IC50,[21],5 nM
same,EC50,[10],5 nM
